Results on 1 substance are retold here after publication PMC4139162.

For the assay, the target named is KcsA potassium channel, L90C, chymotrypsin-truncated (UniProt P0A334). The assay can be described thus: crystal structure.

By stoichiometry N is commonly meant a count of units in the complex or per binding partner. The substance “KcsA potassium channel, L90C, chymotrypsin-truncated (from UniProt P0A334 1-160) (natural protein)” returned a stoichiometry N of 4.
